Measured values as given in ChEMBL document CHEMBL1153299, “Carbonic anhydrase activators: activation of the beta-carbonic anhydrase Nce103 from the yeast Saccharomyces cerevisiae with amines and amino acids” (Bioorg Med Chem Lett, 2009).

Substrate: NCCc1c[nH]cn1
Conditions: Saccharomyces cerevisiae
Description: Activity at yeast recombinant CA expressed in Escherichia coli

B1: Carbonic anhydrase (Saccharomyces cerevisiae S288c), P53615 (protein)
chain: MSATESSSIFTLSHNSNLQDILAANAKWASQMNNIQPTLFPDHNAKGQSPHTLFIGCSDSRYNENCLGVLPGEVFTWKNVANICHSEDLTLKATLEFAIICLKVNKVIICGHTDCGGIKTCLTNQREALPKVNCSHLYKYLDDIDTMYHEESQNLIHLKTQREKSHYLSHCNVKRQFNRIIENPTVQTAVQNGELQVYGLLYNVEDGLLQTVSTYTKVTPK
kcat: 19.6 ×10⁵ /s
